The target in this assay is VSD from KvAP (residues -12 to 136). The assay is described as follows: ITC; 350 uM VSTx1 titrated into 36 uM VSD in the cell, 25 °C, 10 mM PIPES-NaOH pH 6.5, 4 mM DM; single-site model.

Consider one substance from article PMC4585561.

Turning to “VSTx1 (from UniProt P60980 30-63) (peptide)”, the Kd is 1500 nM, the dH was -4.5 kcal/mol and the stoichiometry N amounted to 0.97.
